# Measurements published in paper PMC12136792, “ADP ribosylation factor–like GTPase 6–interacting protein 5 (Arl6IP5) is an ER membrane-shaping protein that modulates ER-phagy” (The Journal of Biological Chemistry, 2025).
# B1: HA-tagged Arl6IP5 (ADP ribosylation factor-like GTPase 6-interacting protein 5) (natural protein, human, UniProt O75915 1-188, looked up)
# chain: MDVNIAPLRAWDDFFPGSDRFARPDFRDISKWNNRVVSNLLYYQTNYLVVAAMMISIVGFLSPFNMILGGIVVVLVFTGFVWAAHNKDVLRRMKKRYPTTFVMVVMLASYFLISMFGGVMVFVFGITFPLLLMFIHASLRLRNLKNKLENKMEGIGLKRTPMGIVLDALEQQEEGINRLTDYISKVKE
# notes: Arl6IP5, human, cDNA in pCMV vector with N-terminal HA tag; ER membrane protein; tested in the membrane fraction, not solubilised; also called HA-Arl6IP5; PRAF3; source: COS-7, transfected (PEI), crude membrane fraction; not shown: HA, N-terminal, kept
# Biological target: the molecule itself
# Test: SDS-PAGE and immunoblot without cross-linker (SDS-resistant dimer); same membrane fraction of COS-7 cells transfected with HA-Arl6IP5, without BS3; anti-HA immunoblot
protein,measurement,value
B1,stoichiometry N,2
